According to paper PMC3253551 (Nature structural & molecular biology, 2011):
Where a chain is given by its changes, count along the chain named.

T1: MPER peptide QQEKNEQELLELDKWASLWNWFNI (binding analysis in membrane environment) (HIV-1 HXB2)
T1 chain: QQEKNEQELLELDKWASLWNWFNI

T2: 15N-13C-2D triply labeled MPER 27mer (HIV-1 (HxB2))
T2 chain: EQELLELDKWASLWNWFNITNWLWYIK

T3: full-length MPER segment (peptide containing the C-helical MPER region) (HIV-1 HXB2, UniProt P04578)
T3 chain: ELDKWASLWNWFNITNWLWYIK

B1: 2F5m I100FS monoclonal antibody (antibody, V domains shown)
VH: RITLKESGPPLVKPTQTLTLTCSFSGFSLSDFGVGVGWIRQPPGKALEWLAIIYSDDDKRYSPSLNTRLTITKDTSKNQVVLVMTRVSPVDTATYFCAHRRGPTTLFGVPSARGPVNAMDVWGQGITVTISS
VL: ALQLTQSPSSLSASVGDRITITCRASQGVTSALAWYRQKPGSPPQLLIYDASSLESGVPSRFSGSGSGTEFTLTISTLRPEDFATYYCQQLHFYPHTFGGGTRVDVR
B2: 2F5m L100AS F100BS monoclonal antibody (antibody, V domains shown)
VH: B1 VH with L106S, F107S, S111I
VL: B1 VL
B3: 2F5 broadly neutralizing monoclonal antibody, wild type (antibody, V domains shown)
VH: B1 VH with S111I
VL: B1 VL
B4: 2F5m F100BS monoclonal antibody (antibody, V domains shown)
VH: B1 VH with F107S, S111I
VL: B1 VL
B5: 2F5 Fab, wild type (Fab, V domains shown)
VH: B1 VH with S111I
VL: B1 VL

Target: T1, MPER peptide QQEKNEQELLELDKWASLWNWFNI …
Assay: SPR

Binder | Kd [nM]
B1 | 28
B2 | 476
B3 | 3.1
B4 | 97

target: wt MPER peptide of the alanine scan (HIV-1 HXB2, UniProt P04578); assay: SPR

Binder | binding result
B1 | binds
B3 | binds
B4 | binds

target: trimeric ADA strain HIV-1 envelope protein GP160 (HIV-1 subtype B, isolate ADA, UniProt Q6TAN8, strain); assay: flow cytometry on cells

Binder | % of cells stained
B1 | 20 % of cells stained
B2 | 3.9 % of cells stained
B3 | 36 % of cells stained
B4 | 12 % of cells stained

Target: T2, 15N-13C-2D triply labeled MPER 27mer
Assay: NMR chemical shift perturbation and cross-saturation transfer

Binder | binding result
B5 | binds

Target: T3, full-length MPER segment (peptide …)
Assay: SPR

Binder | binding result
B1 | binds
B2 | binds
B3 | binds
B4 | binds
